Source: the supplement of paper PMC12764529
± gives the half width of the 95% confidence interval.

Legend:
[1] = folding stability dG unfold (combined trypsin and chymotrypsin); higher = more stable
Method in brief: (§1)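 K50 was inferred by Bayesian fitting of sequencing counts obtained after protease digestion of designed mini-proteins. Unfolding free energy was derived by comparison with a sequence-predicted unfolded-state K50 and a shared folded-state K50, for each protease or both combined. The mini-proteins were under 80 residues, had no cysteine, were carried in a PA-tagged cDNA display construct, and were kept only if AlphaFold2 dimer inter-PAE exceeded 15.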

[2] = folding stability dG unfold from chymotrypsin proteolysis; higher = more stable
Method in brief: as §1

[3] = folding stability dG unfold from trypsin proteolysis; higher = more stable
Method in brief: as §1

## SAGMILTIRPEDGSEEIIPVPKEDIEKLIEDLEKKGIKVLSMTTSPDGVSTIPTQYPDGKKMTITVHLDSAG [r5_645_JUSTAS]
[1]
  folding stability dG unfold: 0.677 ± 0.16 kcal/mol
[2]
  folding stability dG unfold: 0.677 ± 0.22 kcal/mol
[3]
  folding stability dG unfold: 0.707 ± 0.098 kcal/mol

## SAGGSAGGSAGGGPDATPVTTTYVDLNLTPVSTETDPETGAVTVTYKLPGETITVTLPASAGGSAGGSAGGS [r10_962_JUSTAS]
[1]
  folding stability dG unfold: 0.573 ± 0.22 kcal/mol
[2]
  folding stability dG unfold: 1.11 ± 0.42 kcal/mol
[3]
  folding stability dG unfold: -0.629 ± 0.13 kcal/mol

## SAGGSAGGSAGGSSTAVIRRPETGEEHTFDLPEDATEEDIRARLEAAGFPPGSEIVEIVESAGGSAGGSAGG [r7_70_JUSTAS]
[1]
  folding stability dG unfold: 1.66 ± 0.035 kcal/mol
[2]
  folding stability dG unfold: 1.91 ± 0.048 kcal/mol
[3]
  folding stability dG unfold: 1.21 ± 0.067 kcal/mol

## SAGGSAGGSAHKITITLPNGNPPEIVVEFETEEEAKEKAEEIIKKLEEEGYPKENLTVTIEKESAGGSAGGS [r12_295_JUSTAS]
[1]
  folding stability dG unfold: 1.86 ± 0.12 kcal/mol
[2]
  folding stability dG unfold: 1.76 ± 0.087 kcal/mol
[3]
  folding stability dG unfold: 1.87 ± 0.076 kcal/mol

## SETVEIEIELPDGTKVTITVDKDGKVHITIEVPEDNPELLEKGSIEELAKKLAEELGLSEKDVEVTVLPPSA [r9_401_TrROS_Hall]
[1]
  folding stability dG unfold: 2.8 ± 0.27 kcal/mol
[2]
  folding stability dG unfold: 2.45 ± 0.24 kcal/mol
[3]
  folding stability dG unfold: 2.98 ± 0.29 kcal/mol

## SAGAMLTLELTVEADSPEEAIERAKEIAKELIKKEYPELSKNTKIEKITAEPTPGPEVKVTITIKIDPGSAG [r5_320_JUSTAS]
[1]
  folding stability dG unfold: 4.32 ± 0.22 kcal/mol
[2]
  folding stability dG unfold: 3.61 ± 0.18 kcal/mol
[3]
  folding stability dG unfold: 4.42 ± 0.17 kcal/mol

## SAGGSAGGSAGKIEVEGDVEVTVFPPYGLATVTTPNGERYVLLVETRPDGSKRVLLFSAGSAGGSAGGSAGG [r11_331_TrMRF]
[1]
  folding stability dG unfold: 2.26 ± 0.045 kcal/mol
[2]
  folding stability dG unfold: 2.37 ± 0.026 kcal/mol
[3]
  folding stability dG unfold: 2.02 ± 0.039 kcal/mol

## SAGGSSLTTPDGVKVEVYENPENNTIYVFEKKPDGTYTLKTLTKEGDKVTEVSTKTIKSNEKEKLLSAGGSA [r2_336_JUSTAS]
[1]
  folding stability dG unfold: 1.52 ± 0.069 kcal/mol
[2]
  folding stability dG unfold: 1.81 ± 0.081 kcal/mol
[3]
  folding stability dG unfold: 0.966 ± 0.029 kcal/mol

## SAGGSMIVKVTVRVDGKEYERTVEVESLEEALELELPELPEGAEVRIEVVDPETGELIETVTLRVPSAGGSA [r2_390_TrROS_Hall]
[1]
  folding stability dG unfold: 2.46 ± 0.15 kcal/mol
[2]
  folding stability dG unfold: 2.56 ± 0.052 kcal/mol
[3]
  folding stability dG unfold: 2.3 ± 0.13 kcal/mol

## SAGGSAGGSAGTLEALKNLKPGETVTLRVELRVERRYLDPNGKEHTEEVSTVTLELTLKPSAGGSAGGSAGG [r11_36_TrROS_Hall]
[1]
  folding stability dG unfold: 3.49 ± 0.11 kcal/mol
[2]
  folding stability dG unfold: 3.62 ± 0.054 kcal/mol
[3]
  folding stability dG unfold: 3.22 ± 0.11 kcal/mol

## SMIVTEEVSYDPSTNTRTITKTVYEKDENGNLVPVETEVVVEPVEEPPPYVPVIKVPPSNKTPEDRVKVLSA [r9_888_JUSTAS]
[1]
  folding stability dG unfold: 0.781 ± 0.35 kcal/mol
[2]
  folding stability dG unfold: 1.02 ± 0.27 kcal/mol
[3]
  folding stability dG unfold: -0.035 ± 0.23 kcal/mol

## SAMKPFPAKEAIEQILEEMEDMPLPPGQEEVEFQIRLPDDGAPVQISIERNPGKWKIEIYVGNKPIWITSAG [r14_199_TrROS]
[1]
  folding stability dG unfold: 2.05 ± 0.12 kcal/mol
[2]
  folding stability dG unfold: 2.43 ± 0.14 kcal/mol
[3]
  folding stability dG unfold: 1.7 ± 0.082 kcal/mol

## SAMVRIERLPDGSLLVVVESEGKEEGLEFIERFIEEIKSLGIDAEIELLSIEEIPEDPKRYRATFLIKASAG [r14_119_TrMRF]
[1]
  folding stability dG unfold: > 6 kcal/mol
[2]
  folding stability dG unfold: 6.12 ± 0.27 kcal/mol
[3]
  folding stability dG unfold: 4.83 ± 0.22 kcal/mol

## SEITIYNKGKPPPEELLEALKKAPGFPPEDLRKNTKVEPNKDGPQITIPPEQAEQMSKRNPRIMEAIRELSA [r9_160_TrROS]
[1]
  folding stability dG unfold: 1.44 ± 0.48 kcal/mol
[2]
  folding stability dG unfold: 1.75 ± 0.37 kcal/mol
[3]
  folding stability dG unfold: 1.64 ± 0.098 kcal/mol

## SAGGKEYTAKVVEIKKVGNKIFIKIKLSDGRELTIEIKTPEEAKKLKVGDTVKITVNEDGSLTIEVLSAGGS [r16_2_TrROS_Hall]
[1]
  folding stability dG unfold: 4.29 ± 0.074 kcal/mol
[2]
  folding stability dG unfold: 4.33 ± 0.064 kcal/mol
[3]
  folding stability dG unfold: 4.22 ± 0.15 kcal/mol

## SAGGNTIMIPMDPPQAREFAKNFIGEFLDQAEENPDRPIEIMVPGPEGRYITIRVDPKEGNLEIEVVPSAGG [r13_216_TrROS]
[1]
  folding stability dG unfold: 0.125 ± 0.089 kcal/mol
[2]
  folding stability dG unfold: -0.125 ± 0.17 kcal/mol
[3]
  folding stability dG unfold: 0.231 ± 0.057 kcal/mol

## SAMRILIEFDSPEEAEEALRKLVEEAGLVLEEIKVEIAPAKVTTTTPDGKKVTKTKYFALAEIKLSKKESAG [r14_773_TrMRF]
[1]
  folding stability dG unfold: 2.12 ± 0.19 kcal/mol
[2]
  folding stability dG unfold: 2.19 ± 0.086 kcal/mol
[3]
  folding stability dG unfold: 1.47 ± 0.067 kcal/mol

## SAGGSAGGSAEELLKAFPNAEIVKYDPETKKFIIKLKDGSYLVVNLETGEIKLVSKEELEKASAGGSAGGSA [r18_381_TrROS_Hall]
[1]
  folding stability dG unfold: 3.67 ± 0.076 kcal/mol
[2]
  folding stability dG unfold: 3.94 ± 0.066 kcal/mol
[3]
  folding stability dG unfold: 2.66 ± 0.11 kcal/mol

## SAGGSAGGSAGTVEEIAKYFAGEFPNYKVNIDVEWEGGKITSVDIEWEVVPPPPPESPGKSAGGSAGGSAGG [r11_197_TrROS]
[1]
  folding stability dG unfold: 0.834 ± 0.22 kcal/mol
[2]
  folding stability dG unfold: 0.309 ± 0.18 kcal/mol
[3]
  folding stability dG unfold: 1.16 ± 0.12 kcal/mol

## SKIRIIRPERSLEIDLPKSARIEFDPETRRIYFINPDGERLEFPLGPNAVIIPGDDEITIIDPPASPENPSA [r9_653_TrMRF]
[1]
  folding stability dG unfold: 3.19 ± 0.079 kcal/mol
[2]
  folding stability dG unfold: 3.68 ± 0.042 kcal/mol
[3]
  folding stability dG unfold: 2.21 ± 0.038 kcal/mol

## SMITIEINVGNKKYTVEIVPEKGIIKITDPNGTPIGEGEIKPDSIDITLTKPNTDETYKFTFPIPPESLPSA [r9_963_JUSTAS]
[1]
  folding stability dG unfold: 2.69 ± 0.18 kcal/mol
[2]
  folding stability dG unfold: 3.04 ± 0.12 kcal/mol
[3]
  folding stability dG unfold: 2.29 ± 0.1 kcal/mol

## SAGGSAGGSAGGEKIIKVHPDNIEAFLKEAKEKGYKVILFPNGEAIVNGKKVKIISDPKSAGGSAGGSAGGS [r10_930_TrMRF]
[1]
  folding stability dG unfold: 1.74 ± 0.18 kcal/mol
[2]
  folding stability dG unfold: 1.73 ± 0.074 kcal/mol
[3]
  folding stability dG unfold: 1.36 ± 0.12 kcal/mol

## SAGGSAGGSALKNAPGPDPALLKPRPVLVIPIPKDIPLEEAEALAEIFRKLYPDVPVVLDVEGGSAGGSAGG [r6_299_TrMRF]
[1]
  folding stability dG unfold: 0.971 ± 0.05 kcal/mol
[2]
  folding stability dG unfold: 1.07 ± 0.072 kcal/mol
[3]
  folding stability dG unfold: 0.826 ± 0.046 kcal/mol

## SAGMKKKITVKVKVKTEEEAEKLAEELEKELGLKVTVEKNEETGVYTITVEVSPEAVEALKKAGVEIESAGG [r19_306_TrROS_Hall]
[1]
  folding stability dG unfold: 1.86 ± 0.28 kcal/mol
[2]
  folding stability dG unfold: 1.92 ± 0.083 kcal/mol
[3]
  folding stability dG unfold: 1.93 ± 0.33 kcal/mol

## SMTITIVVEAPPEEAKEKAEELEKELKEKLDKLREEAKKKGLSEEEIEEELKIKIKVVVVSKEDLEKLKPSA [r9_961_TrROS_Hall]
[1]
  folding stability dG unfold: 0.431 ± 0.13 kcal/mol
[2]
  folding stability dG unfold: -0.317 ± 0.11 kcal/mol
[3]
  folding stability dG unfold: 0.989 ± 0.082 kcal/mol

## SAGGTVEEIKEKLEEAGWEVVKVEKKEDGSITVTVRRKDGKELKIEIDLKNEEVRKALAELLPEEELSAGGS [r16_821_TrROS_Hall]
[1]
  folding stability dG unfold: 2.95 ± 0.15 kcal/mol
[2]
  folding stability dG unfold: 3.22 ± 0.13 kcal/mol
[3]
  folding stability dG unfold: 2.42 ± 0.19 kcal/mol

## SAMPVFTFPVEIPGPEYTPEEIVAILKEAAAKLNLPVDEEVIRELAEKALAEGTTVADIIEEILKRGLGSAG [r14_364_JUSTAS]
[1]
  folding stability dG unfold: 2.52 ± 0.077 kcal/mol
[2]
  folding stability dG unfold: 1.88 ± 0.045 kcal/mol
[3]
  folding stability dG unfold: 3.07 ± 0.094 kcal/mol

## SAGGSAMPLEELKKVTITLSFYNENGELVAEMTLEYDEETDVFTMTVKVRYNGKTYTVEMEFKLLPSAGGSA [r15_278_TrROS_Hall]
[1]
  folding stability dG unfold: 5.23 ± 0.32 kcal/mol
[2]
  folding stability dG unfold: 5.29 ± 0.2 kcal/mol
[3]
  folding stability dG unfold: 4.5 ± 0.56 kcal/mol

## SAGGSAGGSAGGSSVKLTLPDGSQVTVDIHPDGTATVTTFPGDTPSVTNMPVSAFQAALPSAGGSAGGSAGG [r7_178_JUSTAS]
[1]
  folding stability dG unfold: 2.08 ± 0.53 kcal/mol
[2]
  folding stability dG unfold: 1.79 ± 0.21 kcal/mol
[3]
  folding stability dG unfold: 1.72 ± 0.44 kcal/mol

## SAGGSAPREIPIMIRVPGYQIEIHKITVPPNGMVQIGLEWRNPGGDKPVTINIWLPLNEIKDFIKASAGGSA [r15_56_TrROS]
[1]
  folding stability dG unfold: 2.54 ± 0.14 kcal/mol
[2]
  folding stability dG unfold: 3.1 ± 0.042 kcal/mol
[3]
  folding stability dG unfold: 1.83 ± 0.042 kcal/mol

## SAGGSKERTYRVLIRNPDGELEEIEVSEEELEALLSLPPSATVRIVTEDGEEKTVTINVEKVELKESAGGSA [r2_222_TrROS_Hall]
[1]
  folding stability dG unfold: 3.07 ± 0.17 kcal/mol
[2]
  folding stability dG unfold: 3.48 ± 0.067 kcal/mol
[3]
  folding stability dG unfold: 1.74 ± 0.11 kcal/mol
